Earlier results in publication PMC3772054.

Legend:
[1] = biological target: IL-2Rα (Homo sapiens) (UniProt P01589)
[2] = biological target: IL-15Rα (Homo sapiens) (UniProt Q13261)
Sequence of UniProt Q13261 (Q13261 31-205): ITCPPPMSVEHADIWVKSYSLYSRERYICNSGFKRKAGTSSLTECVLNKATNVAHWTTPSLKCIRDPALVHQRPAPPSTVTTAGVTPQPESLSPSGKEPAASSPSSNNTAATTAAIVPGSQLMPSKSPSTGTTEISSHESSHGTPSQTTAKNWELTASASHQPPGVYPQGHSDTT

Sequence of UniProt P01589 (P01589 22-240): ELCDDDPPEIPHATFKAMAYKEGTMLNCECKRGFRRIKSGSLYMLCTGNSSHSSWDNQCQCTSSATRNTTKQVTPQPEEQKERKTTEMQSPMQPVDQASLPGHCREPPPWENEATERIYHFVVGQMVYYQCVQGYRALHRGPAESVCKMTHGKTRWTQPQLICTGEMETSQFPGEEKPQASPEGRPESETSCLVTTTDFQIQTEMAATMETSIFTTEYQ

Substance	Kd [1]	Kd [2]
IL-2 (from UniProt P60568)	4.8 nM	–
IL-15 (from UniProt P40933)	–	0.038 nM
